Measured values published in a protein production outcome set (Wang et al. 2014).

Test: label from the status in PepcDB records

For “MMQVQYIIWLSCCFKRMNKDREFTESKTIKQNTKMKKRILGAALLVAIAVAAGWNYNQSRNEVPLSDLALANAEALAQGETDWGNCTYYGCIVDFSSTCNVYSSIWGNLIKVCPNMRG”, the protein production was “failed”.

With “MQIDHGSRQPYYAQIVTGIEQDIAHGVLQSGEQLPSVREMARQHLLNPNTVSKAYKRLETQQIIETVPGKGTYVKVVDSTLFRQELREQFTQIVRLAGQRGVSIAELHGWLDQMGEK” the protein production was “failed”.

With “MIRLPRAGTVLAVRGTAARSRRRLSTMARMPDTNTTDLWERRTQGPLLALAVLFAVAYALPVVMPDAPEQLLFACHVANWVVWAAFAIDYAVRLWLSEDRLRFVRSHPLALLAVLLPLLRPLRLLKLVSMLLLAGQRARMASQVRVTTYVAGSCLGLLVFGALAVLEVERGRPGASIQTLGDALWWAFTTMTTVGYGDMAPTTGLGRLLAIGLMLSGIALLGVVTANIAAWFISRFERDDAEERRQTAAIEALTEEVRALRAQVATLRAPQGAPSELNVLPAPTREHD” the protein production was “failed”.

With “MFADNTLTPKEAVRLCALGTIASQPMRYSELAGSVRHFTSRIMGPSLELMGISIELLRYEGLVEAVDDGQGMEDDAMLAISAAGRRELHSLLTARLRPGSDLSKLVVALKMRFLGLMEAEERAHQIDLLIEGVDSELARLADLRGSDGEGGSALAAWLDHDMALLESRLAWLEDFRARL” the protein production was “not failed”.

In the case of “MDDAERERGPWHRNLIVLWFCTFVAGMAFSEIMPFLSLFVSQLGDFTKAQITFYSGLAFAADYAISAISAPLWGIIADKKGRKIMLLRASLGMAVAMGLMGFVTNVWQLVALRALQGVFAGFISNAQALVASQTPRKYSGRALSTLITGAVSGQLFGPVIGGLLAQLFSIRNTFFITAGLLMVAFLLSLFFVQEHFKPVAHHREPGDSRNPLAAFQNPRLIIVMLCSTAIVQFGNASIAPIISLYVRELMHYRGPITVVAGIIAALPGISNIFSAPRLGRYGDQHGSGKVLLFGYIFAVIMYFPQGIVTSVVALGILRFAIGISDGALYPEIQTVLTKNTPVHLTSTIFSYNQSFQAIGNMFGALLGGLVAGWFNYNAVFIMTALLLLINLGLILWLVPDIWKNGKRAVS”, the protein production is reported as “failed”.

With “MAQVPAGKNRSGQLSKQTGDAWENQARRWLEGQGLRFIAANARERGGEIDLIMRDGTVTVFIEVRYRRSARYGDAAASVTPQKQQRLLKAARLWLCRQ” the protein production was “failed”.

In the case of “MEVIREQEFVNQYHYDARNLEWEEENGTPKTNFEVTFQLANRDEAAKVTSIVAVLQFVIVRDEFVISGVISQMAHIQGRLINEPSEFSQDEVENLAAPLLEIVKRLTYEVTEIALDRPGVTLEF”, the protein production is reported as “not failed”.

For “SVTIDHTTENAAPAQAPVSDRAWALFRALDGKGLVPDGYVEGWKKTFEEDFSPRRGAELVARAWTPRRGAELVARAWTDPEFRQLLLTDGTAAVAQYGYLGPQGEYIVAVEDTPTLKNVIVCSLCSCTAWPILGLPPTWYKSFEYRARVVREPRKVLSEMGTEIASDIEIRVYDTTAETRYMVLPQRPAGTEGWSQEQLQEIVTKDCLIGVAIPQVPTV”, the protein production was “not failed”.

With “MWHYLFLAIYVTMIIGIATVTKKRIKGVSDFLLGGRNVNPWMSAFSYGTAYFSAVIFIGFAGKMGWSFGIPTMWIVVGNTIIGSFLAWQVLGKKTREMTQRLGASTMPSFLEKRYKSKNLESLTAFIIFFFLVPYSASIYKGLNFLFEGFGISPMNAYILMAALTAIYLYFGGFIAATLADFVQGCIMVIGVLLMVFFLSSNPEVGGFSGMLSNLSSIDPILVSPISEASFIPIIGLALLTSIGSWGLPQMIHKFYTIKSEKAAVSAKWVSTAFAFIITFGAAYIGTVSRLFYPDAASKVAAGLTSPDMIVPKIMEIALPDWVAALILVLVISASMSTLASLVLASSSVVSIDFVKGRLKPDLSDKNTMILMRLLCVLFVALSFVLAIVPNSYVLSLMALSWGLVSGCLLAPYFLGLYWKRTTKEGVWAGITSALAIMLGGACYFGVNSVYMPAVGSLAMIAPIFVVMAVSLITKPFESEHIDYIFNKK” the protein production was “failed”.

With “MALASSEALVNLVEYARWNQCGVSGGPGTKEFSAEGTEAAKGGRRKAAGGRAGRGGAGRERGGTRDPAMGPGARLALLALLALGGDPAAATGREDTFSALTSVARALAPERRLLGTLRRYLRGEEARLRDLTRFYDKVLSLHEDLKIPVVNPLLAFTLIKRLQSDWRNVVHSLEATENIRALKDGYEKVEQDLPAFEDLEGAARALMRLQDVYMLNVKGLARGVFQRVTGSSITDLYSPRQLFSLTADDCFQVGKVAYDTGDYYHAIPWLEEAVSLFRRAHGEWKTEDEASLEDALDYLAFACFQVGNVSCALSLSREFLVYSPDNKRMARNVLKYERLLAENGHQMAAETAIQRPNVPHLQTRDTYEGLCQTLGSQPTHYQIPSLYCSYETNSSPYLLLQPARKEVVHLRPLIALYHDFVSDEEAQKIRELAEPWLQRSVVASGEKQLQVEYRISKSAWLKDTVDPMLVTLDHRIAALTGLDIQPPYAEYLQVVNYGIGGHYEPHFDHATSPSSPLYRMKSGNRVATFMIYLSSVEAGGATAFIYGNFSVPVVKLSSVEAGGATAFIYGNFSVPVVKLHVFTVPMDGGPWCTCGHWVANKWIHEYGQEFRRPCSTNPED” the protein production was “failed”.

For “MQDDVLAKELADKTSKADIDTDAQTVTRLIADEIDTAKQAAESDITQRSRFIETLRQYAGGGSAMAALITRLGYSKADILHLAELWAQERDPELNFIVGSLYDSGFVEVDDKEARSLQWFRKAAELGQADAQNILGYFYLNGKRGIKRDLQKGGQWYELAAAQGNVDALINLGEIYYSGTQVPLDYARAFEFFERAAKMGKSRALNYLAWMYTNGQFVDTDCRKAAELFAQGRTSFADDPHFQVTCEKDRQARAEAVAMREKNLPKLTFNRDRVFGASQGSGYACELEFVVKTDRVSSIENLRVSLALKNKAGAMSQQVIAFEPFGLNTQNRNLQGYKSDTLRESTLQPIYQPEFCDVDSYSVTAVTGIVNGKEMDILKAGIFL”, the protein production was “failed”.

With “MTHSQWQSLPRRGAYVAAINGTLGGGCAGLITASVTVVWLHAWRYWPAVLGVTAVIALLGAWLAVKRHRLTQWQLDQHGLALQRGHLWQSDTRVPISRVQHVDLRRGPIERATGLTTLVVHTAGSRLNAVALSGLDQDDAERLRDRLARQLDHDDDAL” the protein production was “failed”.

With “MKLGKAQSLEDVAGLVGACAVTILAVIIISALYVGREVFVPVALAILLSFVLARPVNFLQSLRVPRAIAAISTVLFAFAVIFALGSLIATQLSRLADDLPQYQSTIQSKITSLRGVTGGSTTLERAEGMLQNLSKELNKPKNAPAPSLSNPPTSSSRPVTPVPVEVLQPDPGTLANLRSLIAPLISPLATTGIIVIFVIFILLQREDLRNRLIRLAGTRDLQRTTAALDDAASRLSRLFLNQLLINSGFGVLIGTGLWIIGVPSPALWGILAAVLRFVPYIGSIISAAFPLTLAVAVDPGWSMLVWTAILFFVIEPAIAHVVEPMVYGRSTGLSPVAVVISATFWTALWGPIGLVLATPLTVCLVVLGRHVERLAFLDVMFGDRPALSPPEIFYQRMLAGDPAEAAEKAEQFLKERSLSSYYDDVALKGLQLAQADLDRDALDAVRLTRIKETVQEFTEDLTDEIDQAPDGDEATTDAEAAAAVEVTPVDHADDDIAVLKPADLKPGWQGAAPVMCIGGRSQLDEAAALMLAHLCRVHGIGARVEPSSALSTKNIFGLDVSNVALICLSYLEASNTTHIRYAVRRLRRKAPHAKIIVALWSAETPQLADTNESAQADATVLTLRDAVKYCVEEAIIEPPPQTIEMPVISEAV” the protein production was “failed”.

With “MVNPTISDDLFAMIAKKVADKSWLDLKPLIRSGTRGRDIVYRPDVLKDANIYSLCRVPDDFQVGGGHNPTGPQGEGRNRPFFKRCLLANNPTAVYNEAIRVLIHETDINGALKLMQRHAPVRADATIVCAIIFICAGYEWN” the protein production was “not failed”.

In the case of “LLGELNEWLQSCRSLEELFAMVSRFMEHILPDAEGSLYVYSNSRDVLDGSAGWNGGAFKDHIHPEACWGLRRGRSYEYGASEVDFVCDHAEPHDGRPYFCFPVLAHGETVGLMHLRAQPGAEAEFSASKRLAQMCAEQISMAIANVRMRDQLHDQ”, the protein production is reported as “failed”.

For “MADKIKVSLLGSTGMVGQKMVKMLAKHPYLELVKVSASPSKIGKKYKDAVKWIEQGDIPEEVQDLPIVSTNYEDHKDVDVVLSALPNELAESIELELVKNGKIVVSNASPFRMDPDVPLINPEINWEHLELLKFQKERKGWKGILVKNPNCTAAIMSMPIKPLIEIATKSKIIITTLQAVSGAGYNGISFMAIEGNIIPYIKGEEDKIAKELTKLNGKLENNQIIPANLDSTVTSIRVPTRVGHMGVINIVTNERINIEEIKKTLKNFKSLPQQKNLPTAPKQPIIVRDEEDRPQPIIDVNAESGMAVTVGRIRHENNVLRLVVLGDNLVRGAAGITILTVEVMKELGYI”, the protein production was “not failed”.
